The values that follow come from US20220340682A1 (Sanofi, published 2022).

Substitutions are numbered along the chain they refer to.

T1: cCEACAM5 A3B3, M. fascicularis CEACAM5 A3-B3 domain (499-688) (Macaca fascicularis)
T1 construct: Followed by 24 amino acid extension containing a His-Tag; also called cynomolgus CEACAM5 A3-B3
T1 chain: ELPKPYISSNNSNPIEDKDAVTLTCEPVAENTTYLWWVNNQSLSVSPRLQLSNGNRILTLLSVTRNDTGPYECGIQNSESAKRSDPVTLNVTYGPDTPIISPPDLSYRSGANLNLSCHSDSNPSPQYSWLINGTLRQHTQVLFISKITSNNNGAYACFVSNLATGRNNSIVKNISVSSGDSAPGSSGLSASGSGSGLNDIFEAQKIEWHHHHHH

T2: hCEACAM1, human CEACAM1 ECD (35-428) (human, UniProt P13688 35-428)
T2 construct: With 24 amino acid extension containing a His-Tag; also called hEACAM1
T2 sequence: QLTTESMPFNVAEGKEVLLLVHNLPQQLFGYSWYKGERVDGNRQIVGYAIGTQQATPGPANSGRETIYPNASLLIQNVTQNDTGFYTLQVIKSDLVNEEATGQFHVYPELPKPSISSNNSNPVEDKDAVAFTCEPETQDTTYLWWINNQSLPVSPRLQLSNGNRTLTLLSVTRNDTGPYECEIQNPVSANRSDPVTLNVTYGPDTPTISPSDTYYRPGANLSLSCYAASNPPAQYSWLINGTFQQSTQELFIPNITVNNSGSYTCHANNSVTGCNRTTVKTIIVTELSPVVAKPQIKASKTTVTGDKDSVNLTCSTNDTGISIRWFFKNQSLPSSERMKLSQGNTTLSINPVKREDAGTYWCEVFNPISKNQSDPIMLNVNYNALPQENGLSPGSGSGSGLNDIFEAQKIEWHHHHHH

T3: hCEACAM6, human CEACAM6 ECD (35-327) (human, UniProt P40199 35-327)
T3 construct: With 24 amino acid extension containing a His-Tag
T3 sequence: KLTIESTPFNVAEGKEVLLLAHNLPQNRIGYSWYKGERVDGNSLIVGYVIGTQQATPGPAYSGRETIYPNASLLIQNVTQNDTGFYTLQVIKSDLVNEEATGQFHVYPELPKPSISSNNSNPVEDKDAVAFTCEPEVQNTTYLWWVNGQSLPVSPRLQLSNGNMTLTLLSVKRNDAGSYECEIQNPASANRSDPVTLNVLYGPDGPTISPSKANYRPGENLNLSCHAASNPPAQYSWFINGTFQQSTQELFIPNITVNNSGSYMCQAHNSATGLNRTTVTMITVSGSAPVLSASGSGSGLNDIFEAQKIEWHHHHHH

T4: CEACAM5 A2B2, human CEACAM5 A2-B2 domain (321-498) (human, UniProt P06731 321-498)
T4 construct: Followed by 6 amino acid His-Tag; also called hCEACAM5-A2-B2
T4 sequence: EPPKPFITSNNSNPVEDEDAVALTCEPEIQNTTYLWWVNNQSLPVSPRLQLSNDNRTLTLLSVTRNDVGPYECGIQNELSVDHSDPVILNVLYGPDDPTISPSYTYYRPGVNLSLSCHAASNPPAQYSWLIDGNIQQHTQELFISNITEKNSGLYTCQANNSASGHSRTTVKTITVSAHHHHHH

T5: CEACAM5 A3B3, human CEACAM5 A3-B3 domain (499-685) (human, UniProt P06731 499-685)
T5 construct: Followed by 6 amino acid His-Tag; also called hCEACAM5 A3-B3; human A3B3 domain
T5 sequence: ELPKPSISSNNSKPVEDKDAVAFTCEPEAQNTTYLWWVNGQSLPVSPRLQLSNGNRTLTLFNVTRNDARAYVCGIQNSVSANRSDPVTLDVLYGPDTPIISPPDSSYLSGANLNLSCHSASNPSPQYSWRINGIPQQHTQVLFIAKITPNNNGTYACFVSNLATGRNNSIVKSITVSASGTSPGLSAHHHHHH

T6: hCEACAM5 NA1B1, human CEACAM5 N-A1-B1 domain (35-320) (human, UniProt P06731 35-320)
T6 construct: Followed by 6 amino acid His-Tag; also called hCEACAM5 N-ter-A1-B1
T6 sequence: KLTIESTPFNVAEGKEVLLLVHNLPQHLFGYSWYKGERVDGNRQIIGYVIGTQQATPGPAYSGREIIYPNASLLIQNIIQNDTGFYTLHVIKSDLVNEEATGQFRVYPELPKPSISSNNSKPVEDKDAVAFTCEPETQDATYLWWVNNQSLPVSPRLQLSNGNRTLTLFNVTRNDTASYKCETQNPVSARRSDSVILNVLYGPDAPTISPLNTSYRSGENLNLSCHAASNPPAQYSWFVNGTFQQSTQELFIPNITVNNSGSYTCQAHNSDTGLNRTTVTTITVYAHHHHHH

B1: antibody MAb4 (antibody, IgG1, V domains shown)
VH: EVQLVESGGGLVKPGGSLKLSCAASGFTFSSYDMSWVRQTPEKRLEWVAFISSYGGRTYYADTVKGRFTISRDNAKNTLYLQMSSLKSEDTAMFYCAAHYFGTSGPFAYWGQGTLVTVSA
VL: DIQMTQSPASLSASVGETVTITCRASENIYSYFAWYQQKQGKSPQLLVYNAKILAEGVPSRFSGSGSGTQFSLKINSLQPEDFGTYYCQHHYGIPFTFGSGTKLELK
notes: Murine monoclonal from hybridoma, IgG1, kappa
B2: antibody MAb5 (antibody, IgG1, V domains shown)
VH: ELQLVESGGVLVKPGGSLKLSCAASGFAFSSYDMSWVRQTPEKRLEWVTYINSGGGITYYPDTVKGRFTISRDNARNTLYLQMSSLKSEDTAIYYCTAHYFGSSGPFAYWGQGTLVTVSA
VL: B1 VL with F33L, I53T, A55T, T85S, I94T, L106I
notes: as for B1
B3: antibody MAb1 (antibody, IgG1, V domains shown)
VH: EVMLVESGGGLVKPGGSLKLSCAASGFTFSSYAMSWVRQTPEKRLEWVATISSGGSYIYYLDSVKGRFTISRDNAKNTLYLQMSSLRSEDTAMYYCARPAYYGNPAMDYWGQGTSVTVSS
VL: DILMTQSQKFMSTSVGDRVSVTCKASQNVGTNVAWYQQKPGQSPKPLIYSASYRYSGVPDRFTGSGSGTDFTLTISNVQSEDLAEYFCQQYNSYPLYTFGGGTKLEIK
B4: antibody MAb3 (antibody, IgG1, V domains shown)
VH: EVKLVESGGGLVKPGGSLTLPCAASGFTFSRYAMSWVRQTPEKRLEWVASISSGGDTYYPDSVKGRFTVSRDNARNILFLQMSSLRSEDTGMYYCARVNYYDSSFLDWWGQGTTLTVSS
VL: B3 VL with L3V, K9R, S14L, V15E, P46A, S93N
notes: as for B1
B5: huMAb2-3 (antibody, human IgG1, kappa, V domains shown)
VH: EVQLQESGPGLVKPGGSLSLSCAASGFVFSSYDMSWVRQTPERGLEWVAYISSGGGITYAPSTVKGRFTVSRDNAKNTLYLQMNSLTSEDTAVYYCAAHYFGSSGPFAYWGQGTLVTVSS
VL: DIQMTQSPASLSASVGDRVTITCRASENIFSYLAWYQQKPGKSPKLLVYNTRTLAEGVPSRFSGSGSGTDFSLTISSLQPEDFATYYCQHHYGTPFTFGSGTKLEIKR
notes: Humanized MAb2, human IgG1 / Ckappa; also called MAb2_VL1cVH1a-IgG1
B6: huMAb2-1 (antibody, V domains shown)
VH: B5 VH with G44R, A60F, V93I, S120A
VL: DIQMTQSPASLSASVGDTVTITCRASENIFSYLAWYQQKPGKSPKLLVYNTKTLAEGVPSRFSGSGSGTQFSLTISSLQPEDFGSYYCQHHYGTPFTFGSGTKLEIK
notes: Humanized MAb2 (VL1 + VH1) fused to human IgG1 and human Ckappa constant domains; also called MAb2_VL1VH1-IgG1; MAb2VL1VH1-IgG1
B7: huMAb2-2 (antibody, V domains shown)
VH: B5 VH
VL: B6 VL with T18R, Q70D, G84A, S85T
notes: Humanized MAb2 (VL1a + VH1a) fused to human IgG1 and human Ckappa constant domains; also called MAb2_VL1aVH1a-IgG1; MA2_VL1aVH1a-IgG1
B8: huMAb2-4 (antibody, human IgG1, kappa, V domains shown)
VH: B5 VH with G44R, A60F, V93I, S120A
VL: B5 VL with R18T, D70Q, A84G, T85S
notes: Humanized MAb2, human IgG1 / Ckappa; also called MAb2_VL1d VH1-IgG1; MAb2_VL1dVH1-IgG1
B9: chMAb2 (antibody, human IgG1, kappa, V domains shown)
VH: EVQLQESGGVLVKPGGSLKLSCAASGFVFSSYDMSWVRQTPEKRLEWVAYISSGGGITYFPDTVQGRFTVSRDNAKNTLYLQMNSLKSEDTAIYYCAAHYFGSSGPFAYWGQGTLVTVSA
VL: B5 VL with D17E, R18T, P40Q, K45Q, R52K, D70Q, T74K, S76N, A84G, T85S
notes: Chimeric, human IgG1, Ck isotype; also called MAb2-IgG1; chimeric MAb2

One assay deals with T1, cCEACAM5 A3B3, M. fascicularis CEACAM5 …. Nature of the assay: ELISA on coated recombinant CEACAM5 protein or domain, anti-mouse IgG-HRP, OD 450 nm. Here is the method:
Domain mapping of anti-CEACAM5 antibodies to human CEACAM5 and cynomolgus CEACAM5 proteins was determined by ELISA. […] Purified antibodies were added to the plates and detected by using rabbit anti-mouse IgG conjugated with horseradish peroxidase (Sigma; #A9044). Antibody binding was visualized by adding TMB-H2O2 buffer and read at a wavelength of 450 nm.
Turning to B1, the binding result is reported as “binds”.
The same measure, in the same setting: the entry for B2 is “binds”; for B3 it is “binds”.
The same measure, in the same setting: the entry for B4 is “binds”.

For the next assay, the target named is T2, hCEACAM1, human CEACAM1 ECD (35-428). The assay is described as follows: ELISA.
For the molecule B5, the “percentage of binding compared to full binding with human CEACAM5” value (“percentage of binding” for short) is 0.3%.
Regarding B6, the “percentage of binding” value was 0.3%.
On the same count and under the same terms, the figure for B7 is 0.3%; for B8 it is 0.3%.
Same read-out and setting: the figure for B9 is 0.3%.

The target in a further assay is T3, hCEACAM6, human CEACAM6 ECD (35-327). Nature of the assay: ELISA.
In the case of B5, the “percentage of binding” value was 0.3%.
The same measure, in the same setting: the figure for B6 is 0.2%; for B7 it is 0.3%.
On the same count and under the same terms, the figure for B8 is 0.3%; for B9 it is 0.3%.

For the next assay, the target named is T4, CEACAM5 A2B2, human CEACAM5 A2-B2 …. The assay is described as follows: ELISA on CEACAM5 domains.
On to B5, for which the “percentage of binding” value is 0.4%.
B6: the “percentage of binding” value was found to be 0.3%.
Same read-out and setting: the figure for B7 is 0.3%; for B8 it is 0.3%.
B9: the “percentage of binding” value amounted to 0.3%.

A further assay deals with T5, CEACAM5 A3B3, human CEACAM5 A3-B3 …. The assay is described as follows: ELISA on CEACAM5 domains. For orientation: An ELISA detects its analyte on a solid surface through an enzyme-linked reagent.
B5: the “percentage of binding” value is 100%.
Still for that read-out and setting: the figure for B6 is 100%; for B7 it is 100%.
Still for that read-out and setting: the figure for B8 is 100%; for B9 it is 100%.

The target in another assay is T6, hCEACAM5 NA1B1, human CEACAM5 N-A1-B1 …. Nature of the assay: ELISA on CEACAM5 domains.
As for B5, the “percentage of binding” value turned out to be 0.4%.
As to B6, the “percentage of binding” value is 0.4%.
For the molecule B7, the “percentage of binding” value is 0.4%.
On the same count and under the same terms, the figure for B8 is 0.3%; for B9 it is 0.5%.
